These results are taken from paper PMC9545174, “Discovery and characterization of SARS-CoV-2 reactive and neutralizing antibodies from humanized CAMouse^HG mice through rapid hybridoma screening and high-throughput single-cell V(D)J sequencing” (Frontiers in Immunology, 2022).

Numbering of substitutions follows the chain as printed.

Assay [1] concerns the target T1, wildtype SARS-CoV-2 RBD Protein (Severe acute respiratory syndrome …, UniProt P0DTC2). In words: SPR. Particulars: both partners purified.
The target in assay [2] is T1, wildtype SARS-CoV-2 RBD Protein. In words: BLI. The conditions noted are these: both partners purified.

B1: 18-4A (antibody, V domains shown)
VH: QVQLQQSGPGLVKPSQTLSLTCAISGDSVSNNSAAWNWIRQSPSRGLEWLGRTYYRSKWYNDYAVSVSSRITINPDTSKNQFSLQLNSVTPEDTAVYYCAREGALLWFGEGAFDYWGQGTLVTVSS
VL: EIVLTQSPGTLSLSPGERATLSCRASHIVSSSYLAWYQQKPGQAPRFLIYGASSRATGIPDRFSGSGSGTDFTLTISRLEPEDFAVYYCQQYAGSPFTFGPGTKVDIK
A word on the Kd: it is the free concentration of one partner at which half of the binding sites on the other are occupied at equilibrium, for simple one-to-one binding. A higher Kd goes with weaker binding. In assay [1], B1 came in with a Kd of 0.234 nM.

B2: 11-2G (antibody, V domains shown)
VH: QVQLQQAGPGLVKPSQTLSLTCAISGDSVSNNSAIWNWIRQSPSRGLEWLGRTYYRSKWYNDYAVSVSSRITINPDTSKNQFSLQLNSVTPEDTAVYYCARVDILTGYSFDYWGQGTLVTVSS
VL: EIVLTQSPGTLSLSPGERATLSCRASQSVSSSFLAWYQQKPGQAPRFLIYGESYRATGIPDRFSGSGSGTDFTLTISRLEPEDFAVYYCQQYGSSLTFGGGTKVEIK
The molecule B2 gave a Kd in assay [1] of 0.451 nM.

B3: 4-1B (antibody, V domains shown)
VH: QVQLQQSGPGLVKPSQTLSLTCAISGDSVSNNSAAWNWIRQSPSRGLEWLGRTYYRSKWYNDYAVSVSSRITINPDTSKNQFSLQLNSVTPEDTAVYYCARGVYGSGPHAFDIWGQGTMVTVSS
VL: B2 VL with G51V, E52T, Y54N
B3: the binding result in assay [2] is recorded as “binds”.

B4: 4-2D (antibody, V domains shown)
VH: QVQLQQSGPGLVKPSQTLSLTCAISGDSVSNNSAAWNWIRQSPSRGLEWLGRTYYRSKWYNDYAVSVSSRITINPDTSKNQFSLQLNSVTPEDTAVYYCARGLWIPYYYGMDVWGQGTTVTVS
VL: B2 VL with S31N, S32I, Y54S, G100P, E105D
In the case of B4, the binding result in assay [2] is recorded as “binds”.

B5: 15-11F (antibody, V domains shown)
VH: QVQLQQSGPGLVKPSQTLSLTCAISGDSVSNNSAAWNWIRQSPSRGLEWLGRTYYRSKWYNDYAVSVSSRITINPDTSKNQFSLQLNSVTPEDTAVYYCARFSRLLGYGMDVWGQGTTVTVS
VL: B2 VL with S30I, F33Y, A35S, E52A, S53A, Y54S
As to B5, the binding result in assay [2] is given as “binds”.
